# Source: the supplement of paper PMC12667976
# ± gives the standard error.
# B1: library; numbered along this chain (parent)
# chain: MATDAALRRLLRLHRTEIAVAVDSAFPLLHALADHDVVPEDKFQETLHLKEKEGCPQAFHALLSWLLTQDSTAILDFWRVLFKDYNLERYGRLQPILDSFPKDVDLSQPRKGRKPPAVPKALVPPPRLPTKRKASEEARAAAPAALTPRGTASPGSQLKAKPPKKPESSAEQQRLPLGNGIQTMSASVQRAVAMSSGDVPGARGAVEGILIQQVFESGGSKKCIQVGGEFYTPSKFEDSGSGKNKARSSSGPKPLVRAKGAQGAAPGGGEARLGQQGSVPAPLALPSDPQLHQKNEDECAVCRDGGELICCDGCPRAFHLACLSPPLREIPSGTWRCSSCLQATVQEVQPRAEEPRPQEPPVETPLPPGLRSAGEEVRGPPGEPLAGMDTTLVYKHLPAPPSAAPLPGLDSSALHPLLCVGPEGQQNLAPGARCGVCGDGTDVLRCTHCAAAFHWRCHFPAGTSRPGTGLRCRSCSGDVTPAPVEGVLAPSPARLAPGPAKDDTASHEPALHRDDLESLLSEHTFDGILQWAIQSMARPAAPFPS
# Variants of: B1
# Test: AIRE transcriptional activation functional score (insulin promoter-GFP; nonsense median 0, synonymous median 1) (normalised score); higher = higher AIRE activity (more reporter activation)
# Settings: with insulin promoter-GFP reporter in HEK293
# How it was run: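 The functional score compares variant enrichment between select and non-select populations after subtracting wild type. To obtain it, codon-optimized AIRE NNN-codon libraries spanning three regions were placed by Bxb1 recombinase into Flp-In T-REx HEK293 landing-pad cells with an insulin core promoter-GFP reporter. Cells with the top 10% GFP and unselected integrants were tile-sequenced after mCherry+, BFP− integrants had been sorted at day 7 and grown 7 more days. Only variants with 10 counts per million in non-select were kept, rescaled to nonsense median 0 and synonymous median 1, and averaged across biological replicates.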
row,Variant,AIRE transcriptional activation functional score
1,L385F,0.899 ± 0.2
2,L385R,0.699 ± 0.49
3,C337D,1.68 ± 0.34
4,V436S,0.217 ± 0.2
5,V188W,0.518 ± 0.034
6,V188G,0.504 ± 0.15
7,H292P,0.865 ± 0.43
8,H292I,0.603 ± 0.25
9,R473N,0.99 ± 0.077
10,P542D,0.633 ± 0.23
11,S372H,1.13 ± 0.12
12,S372L,0.938 ± 0.21
13,G54Q,-0.474 ± 0.064
14,G462D,0.731 ± 0.1
15,G462Q,1.03 ± 0.042
16,E51T,-0.0714 ± 0.14
17,W531G,0.0105 ± 0.07
18,C437M,-0.171 ± 0.072
19,T16W,-0.366 ± 0.048
20,T16K,-0.208 ± 0.32
21,Q225F,-0.00208 ± 0.1

row,Variant,AIRE transcriptional activation functional score
1,L488W,1.32 ± 0.047
2,E45S,-0.772 ± 0.39
3,A505H,-0.421 ± 0.51
4,A505Y,1.59 ± 0.042
5,A505V,0.997 ± 0.18
6,A317P,1.23 ± 0.38
7,T480H,1.18 ± 0.072
8,T480F,1.32 ± 0.13
9,E298C,-0.0529 ± 0.35
10,R174D,0.334 ± 0.27
11,V118Q,0.675 ± 0.51
12,A142E,1.17 ± 0.28
13,P490T,1.13 ± 0.13
14,H30N,0.384 ± 0.43
15,H30V,-0.417 ± 0.44
16,T364K,0.737 ± 0.18
17,I309S,1.35 ± 0.13
18,G91R,1.22 ± 0.57
19,P280H,1.04 ± 0.14
20,A496P,0.91 ± 0.15
21,S234A,1.24 ± 0.36

row,Variant,AIRE transcriptional activation functional score
1,W65Q,-0.357 ± 0.56
2,W65E,0.0731 ± 0.092
3,A265L,1.21 ± 0.35
4,L519Q,0.698 ± 0.32
5,R92C,0.489 ± 0.17
6,G197D,0.624 ± 0.1
7,A284M,0.962 ± 0.03
8,I209K,0.159 ± 0.16
9,I96Q,-1.73 ± 0.64
10,Q213N,0.805 ± 0.077
11,H507C,0.78 ± 0.14
12,V206Y,0.936 ± 0.25
13,A21S,0.0464 ± 0.33
14,A21M,0.432 ± 0.19
15,P129Y,0.0475 ± 0.46
16,P109R,0.676 ± 0.53
17,T334Y,1.17 ± 0.19
18,L158Q,0.833 ± 0.56
19,L158S,0.724 ± 0.48
20,L158C,0.528 ± 0.29
21,L29I,0.187 ± 0.2

row,Variant,AIRE transcriptional activation functional score
1,L495C,0.97 ± 0.42
2,R113N,1.68 ± 0.77
3,R113I,1.46 ± 0.3
4,R113G,0.801 ± 0.29
5,V199N,0.886 ± 0.05
6,E216K,1.2 ± 0.18
7,G204E,0.847 ± 0.05
8,G204R,1.32 ± 0.17
9,G204P,1.08 ± 0.32
10,R445S,0.952 ± 0.26
11,G112W,1.45 ± 0.18
12,C434V,0.211 ± 0.13
13,L283Q,0.784 ± 0.11
14,A246C,1.22 ± 0.087
15,G269V,1.05 ± 0.17
16,G155T,0.66 ± 0.12
17,Q44N,0.983 ± 0.35
18,Q44F,1.98 ± 0.19
19,E359H,0.97 ± 0.34
20,P266E,0.486 ± 0.14
